{"source": "patent US20260227403A1", "about": "(HENRY M JACKSON FOUNDATION FOR THE ADVANCEMENT OF MILITARY …, published 2026)", "binders": {"B1": {"name": "ETV1 rabbit monoclonal antibody (29E4) (antibody, V domains shown)", "VH": "QELEESGGDLVKPGASLTLTCTASGFFFSAENHICWVRQAPGKGLEWIGCVYIGSYVGGSGDPYYASWAKGRFTISKTSSTTVTLQMSSLTAADTATYFCARDLGSLWGPGTLVTVSS", "VL": "DVVMTQTASSVSAAVGGTVTIACQSSQSVYDNNNLAWFQQKPGQPPKRLIYSASTLASGVSSRFKGSGYGTQFTLTISDVQCDDAATYYCVGAFSGYIFVFGGGTEVVVK", "notes": "constant regions are not; also called 29E4 mAb; ETV1 29E4 mAb"}}, "target": "T1, ETV1 immunogenic peptide P1 (human)", "T1 construct": "27 amino acid peptide, ETV1 residues 212-238; also called immunogen peptide; ETV1 P1 peptide", "T1 sequence (peptide, as listed by the source)": "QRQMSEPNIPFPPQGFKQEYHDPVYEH", "assay": "SPR (Biacore T200), antibody amine-coupled on CM5 chip, peptide as analyte, 1:1 binding fit", "experimental": "Affinity measurements using SPRi was performed using a Biacore T200 instrument (Cytiva, Marlborough, MA) by Creative Biolabs (Shirley, NY, USA). The ETV1 (29E4) antibody was directly immobilized onto a CM5 sensor chip surface using an amine coupling kit (Cytiva). Before immobilization, the CM5 sensor surface was activated using a mixture of 400 mM 1-ethyl-3-(3-dimethylaminopropyl) carbodiimide (EDC) and 100 mM N-hydroxysuccinimide (NHS). The ETV1 antibody was diluted to 40 μg/ml in immobilization buffer (10 mM NaAc, pH 4.5) and injected into Fc4 sample channel at a flow rate of 10 μL/min. The amount of antibody (ligand) immobilized was about 5,000 RU. The chip was deactivated by 1 M Ethanolamine hydrochloride-NaOH (GE Healthcare Life Sciences, Piscataway, NJ) at a flow rate of 10 μL/min for 420 seconds. The reference Fc3 channel underwent similar procedures but without injecting the ligand. […] Different concentrations of the […] were then injected into the cell over both channels at a flow rate of 30 μL/min, with a contact time of 90 seconds, followed by a dissociation time of 210 seconds. The surface was regenerated with 10 mM Glycine-HCl, pH 1.5 after each injection to prepare for the injection of the next antibody dilution sample. Data analysis was performed on the Biacore T200 computer and with the Biacore T200 evaluation software, using the steady-state affinity model or 1:1 binding model.\nThe binding of the 29E4 mAb to its epitope sequence was further analyzed by using SPRi. After immobilizing the ETV1 mAb onto a matrix of dextran on the surface of a Sensor Chip to a level of 5000 response units (RU) with standard amine coupling (FIG. 4, panel A), different concentrations of the serially diluted peptide were then injected as an analyte into the cell over both channels for 300 seconds (contact time of 90 seconds, followed by a dissociation time of 210 seconds) to give a response of about 180 RU. The different binding affinity of each antibody dilution is depicted in the overlay plot of SPR sensorgrams and fitting curves (FIG. 4, panel B)."}
{"binder": "B1", "values": [{"measurement": "Kd", "value": 479, "unit": "pM"}, {"measurement": "koff", "value": 0.000149, "unit": "s⁻¹"}, {"measurement": "kon", "value": 311000, "unit": "M⁻¹ s⁻¹"}]}
